What is called IC50 is the midpoint of a concentration-inhibition curve.

Numbered stars: 1 amine (or outer) side, 2 acyl side, 3 side chain; on linkers, the order of the positions; unused ones are H or OH. Bridge positions count the residues as written; N and C are the ends. Side chains are listed from the residue outwards. Ends that are not written are not given here. * marks the point of attachment. C20 diacid = O=C(O)CCCCCCCCCCCCCCCCCCC(=O)*; γGlu = O=C(O)[C@H](CCC(=O)[*:2])N[*:1]; AEEA = NCCOCCOCC(=O)O

These results are taken from patent US20140087995A1 (published 2014).

T1: human calcitonin receptor (human, UniProt P30988 25-474)
T1 construct: whole, on cells; also called hCTR; hCT
T1 sequence (looked up): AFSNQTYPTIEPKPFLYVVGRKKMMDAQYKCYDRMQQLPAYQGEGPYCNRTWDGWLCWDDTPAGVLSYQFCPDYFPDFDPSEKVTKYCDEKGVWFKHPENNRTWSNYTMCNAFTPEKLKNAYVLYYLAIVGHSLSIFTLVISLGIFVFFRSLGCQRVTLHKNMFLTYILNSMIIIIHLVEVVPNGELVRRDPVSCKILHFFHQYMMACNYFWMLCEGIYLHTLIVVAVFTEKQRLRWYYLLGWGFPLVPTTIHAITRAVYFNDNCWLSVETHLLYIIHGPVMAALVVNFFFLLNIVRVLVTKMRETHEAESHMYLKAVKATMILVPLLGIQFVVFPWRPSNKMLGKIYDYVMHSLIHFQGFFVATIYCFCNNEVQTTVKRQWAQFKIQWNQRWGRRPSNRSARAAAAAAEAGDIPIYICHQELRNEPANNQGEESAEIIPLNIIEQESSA

T2: rat calcitonin receptor (rat, UniProt P32214 25-516)
T2 construct: whole, on cells; also called rCTR; rat calcitonin (a) receptor
T2 sequence (looked up): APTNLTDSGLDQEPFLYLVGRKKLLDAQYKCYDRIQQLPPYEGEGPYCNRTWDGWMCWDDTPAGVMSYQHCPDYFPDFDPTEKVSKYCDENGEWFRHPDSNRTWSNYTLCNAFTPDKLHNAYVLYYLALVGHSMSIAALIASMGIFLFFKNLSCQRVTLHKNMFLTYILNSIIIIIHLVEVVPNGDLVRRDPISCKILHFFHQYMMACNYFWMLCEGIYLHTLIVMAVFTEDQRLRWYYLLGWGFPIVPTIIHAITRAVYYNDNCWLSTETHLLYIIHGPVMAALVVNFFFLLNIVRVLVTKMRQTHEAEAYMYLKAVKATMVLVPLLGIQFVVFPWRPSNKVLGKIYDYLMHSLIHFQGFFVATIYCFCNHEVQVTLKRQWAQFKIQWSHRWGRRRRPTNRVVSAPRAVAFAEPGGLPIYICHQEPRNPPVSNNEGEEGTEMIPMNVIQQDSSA

T3: rat amylin receptor (rat calcitonin receptor + rat RAMP 3) (rat, UniProt P32214 25-516; Q9JJ73 23-147)
T3 construct: whole, on cells; also called rAmylin-R; rat amylin 3(a) receptor
T3 sequence (looked up) 1: T2 sequence (looked up)
T3 sequence (looked up) 2: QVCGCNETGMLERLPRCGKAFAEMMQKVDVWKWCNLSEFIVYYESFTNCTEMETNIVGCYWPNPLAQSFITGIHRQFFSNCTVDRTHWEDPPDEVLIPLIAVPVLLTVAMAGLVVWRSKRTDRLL

B1: N^ε1-[2-[2-[2-[[(4S)-4-carboxy-4-(19-carboxynonadecanoylamino)butanoyl]amino]ethoxy]ethoxy]acetyl]-[Arg17,Pro21,Pro27,His34]-h-amylin (peptide)
peptide: K([AEEA-γGlu-C20 diacid])CNTATCATQRLANFLRHSSPNFGAIPSSTNVGHNTY-NH2
modifications: disulfide 2-7; N-terminus assumed
SMILES: CC[C@H](C)[C@H](NC(=O)[C@H](C)NC(=O)CNC(=O)[C@H](Cc1ccccc1)NC(=O)[C@H](CC(N)=O)NC(=O)[C@@H]1CCCN1C(=O)[C@H](CO)NC(=O)[C@H](CO)NC(=O)[C@H](Cc1c[nH]cn1)NC(=O)[C@H](CCCNC(=N)N)NC(=O)[C@H](CC(C)C)NC(=O)[C@H](Cc1ccccc1)NC(=O)[C@H](CC(N)=O)NC(=O)[C@H](C)NC(=O)[C@H](CC(C)C)NC(=O)[C@H](CCCNC(=N)N)NC(=O)[C@H](CCC(N)=O)NC(=O)[C@@H](NC(=O)[C@H](C)NC(=O)[C@@H]1CSSC[C@H](NC(=O)[C@@H](N)CCCCNC(=O)COCCOCCNC(=O)CC[C@H](NC(=O)CCCCCCCCCCCCCCCCCCC(=O)O)C(=O)O)C(=O)N[C@@H](CC(N)=O)C(=O)N[C@@H]([C@@H](C)O)C(=O)N[C@@H](C)C(=O)N[C@@H]([C@@H](C)O)C(=O)N1)[C@@H](C)O)C(=O)N1CCC[C@H]1C(=O)N[C@@H](CO)C(=O)N[C@@H](CO)C(=O)N[C@H](C(=O)N[C@@H](CC(N)=O)C(=O)N[C@H](C(=O)NCC(=O)N[C@@H](Cc1c[nH]cn1)C(=O)N[C@@H](CC(N)=O)C(=O)N[C@H](C(=O)N[C@@H](Cc1ccc(O)cc1)C(N)=O)[C@@H](C)O)C(C)C)[C@@H](C)O
notes: synthetic analogue of human amylin; also called compound 76
B2: N^ε1-[2-[2-[2-[[(4S)-4-carboxy-4-(19-carboxynonadecanoylamino)butanoyl]amino]ethoxy]ethoxy]acetyl]-[Arg17,Pro21,Pro27,Pro29,Pro31]-h-amylin (peptide)
peptide: K([AEEA-γGlu-C20 diacid])CNTATCATQRLANFLRHSSPNFGAIPSPTPVGSNTY-NH2
modifications: disulfide 2-7; N-terminus assumed
SMILES: CC[C@H](C)[C@H](NC(=O)[C@H](C)NC(=O)CNC(=O)[C@H](Cc1ccccc1)NC(=O)[C@H](CC(N)=O)NC(=O)[C@@H]1CCCN1C(=O)[C@H](CO)NC(=O)[C@H](CO)NC(=O)[C@H](Cc1c[nH]cn1)NC(=O)[C@H](CCCNC(=N)N)NC(=O)[C@H](CC(C)C)NC(=O)[C@H](Cc1ccccc1)NC(=O)[C@H](CC(N)=O)NC(=O)[C@H](C)NC(=O)[C@H](CC(C)C)NC(=O)[C@H](CCCNC(=N)N)NC(=O)[C@H](CCC(N)=O)NC(=O)[C@@H](NC(=O)[C@H](C)NC(=O)[C@@H]1CSSC[C@H](NC(=O)[C@@H](N)CCCCNC(=O)COCCOCCNC(=O)CC[C@H](NC(=O)CCCCCCCCCCCCCCCCCCC(=O)O)C(=O)O)C(=O)N[C@@H](CC(N)=O)C(=O)N[C@@H]([C@@H](C)O)C(=O)N[C@@H](C)C(=O)N[C@@H]([C@@H](C)O)C(=O)N1)[C@@H](C)O)C(=O)N1CCC[C@H]1C(=O)N[C@@H](CO)C(=O)N1CCC[C@H]1C(=O)N[C@H](C(=O)N1CCC[C@H]1C(=O)N[C@H](C(=O)NCC(=O)N[C@@H](CO)C(=O)N[C@@H](CC(N)=O)C(=O)N[C@H](C(=O)N[C@@H](Cc1ccc(O)cc1)C(N)=O)[C@@H](C)O)C(C)C)[C@@H](C)O
notes: synthetic analogue of human amylin; also called compound 54
B3: N^ε1-[2-[2-[2-[[(4S)-4-carboxy-4-(19-carboxynonadecanoylamino)butanoyl]amino]ethoxy]ethoxy]acetyl]-[Arg17,Pro21,Pro27,Pro29,Pro34]-h-amylin (peptide)
peptide: K([AEEA-γGlu-C20 diacid])CNTATCATQRLANFLRHSSPNFGAIPSPTNVGPNTY-NH2
modifications: disulfide 2-7; N-terminus assumed
SMILES: CC[C@H](C)[C@H](NC(=O)[C@H](C)NC(=O)CNC(=O)[C@H](Cc1ccccc1)NC(=O)[C@H](CC(N)=O)NC(=O)[C@@H]1CCCN1C(=O)[C@H](CO)NC(=O)[C@H](CO)NC(=O)[C@H](Cc1c[nH]cn1)NC(=O)[C@H](CCCNC(=N)N)NC(=O)[C@H](CC(C)C)NC(=O)[C@H](Cc1ccccc1)NC(=O)[C@H](CC(N)=O)NC(=O)[C@H](C)NC(=O)[C@H](CC(C)C)NC(=O)[C@H](CCCNC(=N)N)NC(=O)[C@H](CCC(N)=O)NC(=O)[C@@H](NC(=O)[C@H](C)NC(=O)[C@@H]1CSSC[C@H](NC(=O)[C@@H](N)CCCCNC(=O)COCCOCCNC(=O)CC[C@H](NC(=O)CCCCCCCCCCCCCCCCCCC(=O)O)C(=O)O)C(=O)N[C@@H](CC(N)=O)C(=O)N[C@@H]([C@@H](C)O)C(=O)N[C@@H](C)C(=O)N[C@@H]([C@@H](C)O)C(=O)N1)[C@@H](C)O)C(=O)N1CCC[C@H]1C(=O)N[C@@H](CO)C(=O)N1CCC[C@H]1C(=O)N[C@H](C(=O)N[C@@H](CC(N)=O)C(=O)N[C@H](C(=O)NCC(=O)N1CCC[C@H]1C(=O)N[C@@H](CC(N)=O)C(=O)N[C@H](C(=O)N[C@@H](Cc1ccc(O)cc1)C(N)=O)[C@@H](C)O)C(C)C)[C@@H](C)O
notes: synthetic analogue of human amylin; also called compound 56
B4: N^ε1-[2-[2-[2-[[(4S)-4-carboxy-4-(19-carboxynonadecanoylamino)butanoyl]amino]ethoxy]ethoxy]acetyl]-[Arg17,Pro21,Pro27,Pro28,Pro34]-h-amylin (peptide)
peptide: K([AEEA-γGlu-C20 diacid])CNTATCATQRLANFLRHSSPNFGAIPPSTNVGPNTY-NH2
modifications: disulfide 2-7; N-terminus assumed
SMILES: CC[C@H](C)[C@H](NC(=O)[C@H](C)NC(=O)CNC(=O)[C@H](Cc1ccccc1)NC(=O)[C@H](CC(N)=O)NC(=O)[C@@H]1CCCN1C(=O)[C@H](CO)NC(=O)[C@H](CO)NC(=O)[C@H](Cc1c[nH]cn1)NC(=O)[C@H](CCCNC(=N)N)NC(=O)[C@H](CC(C)C)NC(=O)[C@H](Cc1ccccc1)NC(=O)[C@H](CC(N)=O)NC(=O)[C@H](C)NC(=O)[C@H](CC(C)C)NC(=O)[C@H](CCCNC(=N)N)NC(=O)[C@H](CCC(N)=O)NC(=O)[C@@H](NC(=O)[C@H](C)NC(=O)[C@@H]1CSSC[C@H](NC(=O)[C@@H](N)CCCCNC(=O)COCCOCCNC(=O)CC[C@H](NC(=O)CCCCCCCCCCCCCCCCCCC(=O)O)C(=O)O)C(=O)N[C@@H](CC(N)=O)C(=O)N[C@@H]([C@@H](C)O)C(=O)N[C@@H](C)C(=O)N[C@@H]([C@@H](C)O)C(=O)N1)[C@@H](C)O)C(=O)N1CCC[C@H]1C(=O)N1CCC[C@H]1C(=O)N[C@@H](CO)C(=O)N[C@H](C(=O)N[C@@H](CC(N)=O)C(=O)N[C@H](C(=O)NCC(=O)N1CCC[C@H]1C(=O)N[C@@H](CC(N)=O)C(=O)N[C@H](C(=O)N[C@@H](Cc1ccc(O)cc1)C(N)=O)[C@@H](C)O)C(C)C)[C@@H](C)O
notes: synthetic analogue of human amylin; also called compound 55
B5: N^ε1-[2-[2-[2-[[(4S)-4-carboxy-4-(19-carboxynonadecanoylamino)butanoyl]amino]ethoxy]ethoxy]acetyl]-[Arg17,Pro21,Pro27,Pro28,Pro31]-h-amylin (peptide)
peptide: K([AEEA-γGlu-C20 diacid])CNTATCATQRLANFLRHSSPNFGAIPPSTPVGSNTY-NH2
modifications: disulfide 2-7
notes: synthetic analogue of human amylin; also called compound 53

The target of the first assay is T1, human calcitonin receptor. Kind of assay: ratio of binding IC50s: human calcitonin receptor over human amylin receptor (reference). The method, then: The resulting pellet was resuspended, homogenized and centrifuged (20.000 rpm, 15 min) in a buffer containing 20 mM Na-HEPES and 0.1 mM EDTA (pH 7.4, buffer 2). The resulting pellet was resuspended in buffer 2 and protein concentration was measured (BCA protein Assay, Pierce). The homogenate was kept cold during the whole procedure. The membranes were kept at −80° C. until use. The assay was performed in a 384 well Optiplate (PerkinElmer) in a total volume of 40 ul. Membranes were mixed with SPA beads. Final concentration of membranes 35 ng/μL final and SPA beads was 0.05 mg/well. Test-compounds were dissolved in DMSO and further diluted in assay buffer (50 mM Hepes, pH 7.4, 1 mM CaCl2, 5 mM MgCl₂, 0.1% OA and 0.02% Tween20). […] The final mixture was incubated with shaking at 400 rpm for 120 min at 25° C. prior to centrifugation (1500 rpm, 10 min). Samples were analyzed on TopCounter™ (Packard). The IC₅₀ was calculated using (one site binding competition analysis) GraphPad Prism5 as a measure of receptor affinity.
Membranes were prepared in the following way; the cells were rinsed with PBS and incubated with Versene for approximately 5 min before harvesting. The cells were flushed with PBS and the cell-suspension was centrifuged for 5 min at 1000 rpm. Cells were homogenized (Ultrathurrax) in a buffer containing 20 mM Na-HEPES and 10 mM EDTA (pH 7.4) and centrifuged at 20.000 rpm for 15 min. The resulting pellet was resuspended, homogenized and centrifuged (20.000 rpm, 15 min) in a buffer containing 20 mM Na-HEPES and 0.1 mM EDTA (pH 7.4, buffer 2). The resulting pellet was resuspended in buffer 2 and protein concentration was measured (BCA protein Assay, Pierce). The homogenate was kept cold during the whole procedure. The membranes were kept at −80° C. until use. Assay was performed in a 384 well Optiplate (PerkinElmer) in a total volume of 40 ul. Membranes were mixed with SPA beads.
Take B1: the “Ratio hCT/hAmylin binding” value was 80.

Turning to B2, the “Ratio hCT/hAmylin binding” value turned out to be 146.

On to B3, for which the “Ratio hCT/hAmylin binding” value turned out to be 42.6.

Turning to B4, the “Ratio hCT/hAmylin binding” value is 51.8.

As for B5, the “Ratio hCT/hAmylin binding” value was found to be 104.

The next assay deals with T2, rat calcitonin receptor. Kind of assay: ratio of binding IC50s: rat calcitonin receptor over rat amylin receptor (reference).
Consider B1, for which the “Ratio rCT/rAmylin binding” value was 56.8.

For B2, the “Ratio rCT/rAmylin binding” value was determined as 179.

B3: the “Ratio rCT/rAmylin binding” value is 131.

In the case of B4, the “Ratio rCT/rAmylin binding” value came out at 77.2.

Turning to B5, the “Ratio rCT/rAmylin binding” value is 130.

In a further assay the target is T3, rat amylin receptor (rat calcitonin …). Kind of assay: SPA competition with 125I-rat amylin, membranes of BHK cells with rat calcitonin receptor + rat RAMP3 (Assay VI).
For B1, the IC50 is 0.686 nM.

For the molecule B2, the 50% inhibitory concentration (IC50) amounted to 0.049 nM.

For B3, the IC50 was 0.04 nM.

Take B4: the IC50 stood at 0.081 nM.

On to B5, for which the IC50 stood at 0.084 nM.

The target in another assay is T2, rat calcitonin receptor. The assay is described as follows: SPA competition with 125I-calcitonin, membranes of BHK cells with rat calcitonin receptor (Assay VIII).
On to B1, for which the IC50 was 38.9 nM.

For B2, the IC50 worked out at 8.79 nM.

As for B3, the IC50 was 5.26 nM.

Turning to B4, the half-maximal inhibitory concentration (IC50) was found to be 6.25 nM.

Take B5: the half-inhibitory concentration (IC50) stood at 10.9 nM.
